In article PMC9122601, “A widespread family of WYL-domain transcriptional regulators co-localizes with diverse phage defence systems and islands” one finds stoichiometry N, binding result and Kd data, which are given here for seven molecules.

Data set [1] addresses His6-BrxR-R17A from Escherichia fergusonii (Escherichia fergusonii ATCC 35469). Description: SEC; analytical gel filtration, Superdex 200 Increase GL 5/150, 20 mM Tris-HCl pH 7.9, 150 mM NaCl, 0.175 ml/min; 50 μl samples with 5 μl of 1000 nM protein; oligomeric state from elution volume against calibration standards.
The target of data set [2] is His6-BrxR from Escherichia fergusonii (Escherichia fergusonii ATCC 35469). The description is as above.
Data set [3] concerns the target BrxR from Escherichia fergusonii, untagged (Escherichia fergusonii ATCC 35469). Described as above.
In data set [4] the target is T1, His6-BrxR (BrxR-Efer) (Escherichia fergusonii (plasmid pEFER), UniProt B7L3Y3 14-308).
T1 sequence: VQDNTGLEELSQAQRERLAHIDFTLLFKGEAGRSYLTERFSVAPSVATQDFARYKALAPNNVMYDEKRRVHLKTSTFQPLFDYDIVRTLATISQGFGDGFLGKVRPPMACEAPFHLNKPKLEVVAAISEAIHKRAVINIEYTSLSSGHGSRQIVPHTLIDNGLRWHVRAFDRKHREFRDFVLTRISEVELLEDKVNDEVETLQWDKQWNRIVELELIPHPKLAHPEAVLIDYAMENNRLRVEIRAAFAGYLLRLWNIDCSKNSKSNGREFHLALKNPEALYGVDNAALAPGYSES
Description: EMSA; only non-specific binding at high protein; EMSA: 10 mM Tris-HCl pH 7.9, 150 mM KCl, 0.5 mM EDTA, 0.2 mM DTT, 0.1% Triton X-100, 13% glycerol (1x of 5x buffer), 1 ug poly(dI-dC) per 10 ul, 2500 fmol probe, 25 C 30 min; 7% native PAGE in 0.5x TBE. The settings on record: protein: recombinant; tags: N-terminal His6; chain copies: 2; label: 5' 6-FAM on reverse strand (primer TRB1068); blunt.

Data set [5] concerns the target T1, His6-BrxR (BrxR-Efer). Description: EMSA; EMSA: 10 mM Tris-HCl pH 7.9, 150 mM KCl, 0.5 mM EDTA, 0.2 mM DTT, 0.1% Triton X-100, 13% glycerol (1x of 5x buffer), 1 ug poly(dI-dC) per 10 ul, 2500 fmol probe, 25 C 30 min; 7% native PAGE in 0.5x TBE. The following applies: protein: recombinant; tags: N-terminal His6; chain copies: 2; label: 5' 6-FAM on reverse strand (primer TRB1068); blunt.

Regarding “His6-BrxR-R17A from Escherichia fergusonii (natural protein)”, the stoichiometry N in data set [1] was found to be 2.
In data set [2], “His6-BrxR from Escherichia fergusonii (natural protein)” displayed a stoichiometry N of 2.
In data set [3], “BrxR from Escherichia fergusonii, untagged (natural protein)” registered a stoichiometry N of 2.

B1: IR1c-IR2c probe (dsDNA)
DNA 1: GACGACTTGTTGATACTATCCCCCCCCCCCAAAAACCCCCCCCCCCTTGATGGCATTCAATCGATGGCTTAAGCTTTTGTCAGTGCGCA
DNA 2: TGCGCACTGACAAAAGCTTAAGCCATCGATTGAATGCCATCAAGGGGGGGGGGGTTTTTGGGGGGGGGGGATAGTATCAACAAGTCGTC
Turning to B1, in data set [4], the binding result is reported as “no binding”.

B2: WT IR1-IR2 probe (R7, R-BOX1) (dsDNA)
DNA 1: GACGACTTGTTGATACTATGAAACCTACTGAAAAACAGTAGGTTGCTTGATGGCATTCAATCGATGGCTTAAGCTTTTGTCAGTGCGCA
DNA 2: TGCGCACTGACAAAAGCTTAAGCCATCGATTGAATGCCATCAAGCAACCTACTGTTTTTCAGTAGGTTTCATAGTATCAACAAGTCGTC
As for B2, in data set [5], the Kd amounted to 13 ± 2.7 nM.

B3: IR1c-IR2 probe (dsDNA)
DNA 1: GACGACTTGTTGATACTATCCCCCCCCCCCAAAAACAGTAGGTTGCTTGATGGCATTCAATCGATGGCTTAAGCTTTTGTCAGTGCGCA
DNA 2: TGCGCACTGACAAAAGCTTAAGCCATCGATTGAATGCCATCAAGCAACCTACTGTTTTTGGGGGGGGGGGATAGTATCAACAAGTCGTC
Turning to B3, the Kd in data set [5] is 24 ± 6.5 nM.

B4: IR1-IR2c probe (dsDNA)
DNA 1: GACGACTTGTTGATACTATGAAACCTACTGAAAAACCCCCCCCCCCTTGATGGCATTCAATCGATGGCTTAAGCTTTTGTCAGTGCGCA
DNA 2: TGCGCACTGACAAAAGCTTAAGCCATCGATTGAATGCCATCAAGGGGGGGGGGGTTTTTCAGTAGGTTTCATAGTATCAACAAGTCGTC
Regarding B4, the Kd in data set [5] turned out to be 85.5 ± 18.7 nM.
